Values joined by “and” are separate entries in the source; they are usually repeats but may differ in a detail not shown here. Equal values may be shown once.
What was measured:
Assay in all cases: ELISA: antibody coated, supernatant, anti-His-HRP
[1] = biological target: CD9-ECL2 mutant M4 (human, with rat residues) (UniProt P21926)
[2] = biological target: CD9-ECL2 mutant M1 (human, with rat residues) (UniProt P21926)
[3] = biological target: p-Myc-His CD9-ECL2 wild type (human)
Sequence of p-Myc-His CD9-ECL2 wild type (human) (chain, as listed by the source limits assumed): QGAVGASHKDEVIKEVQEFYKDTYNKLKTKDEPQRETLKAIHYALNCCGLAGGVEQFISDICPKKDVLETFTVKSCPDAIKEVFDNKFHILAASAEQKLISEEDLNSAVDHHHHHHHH

Sequence of CD9-ECL2 mutant M1 (human, with rat residues) (P21926 other isoform, or with tags, fused parts or gaps mutant): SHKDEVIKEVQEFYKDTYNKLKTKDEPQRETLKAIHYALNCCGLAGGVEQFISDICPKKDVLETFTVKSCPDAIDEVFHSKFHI
Sequence of CD9-ECL2 mutant M4 (human, with rat residues) (P21926 other isoform, or with tags, fused parts or gaps mutant): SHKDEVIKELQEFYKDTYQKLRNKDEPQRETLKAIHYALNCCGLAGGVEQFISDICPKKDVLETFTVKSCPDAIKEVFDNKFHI

OD490 [1] | OD490 [2] | OD490 [3] | Substance
0.04 and 0.047 | 0.046 and 0.056 | 0.044 and 0.053 | normal mouse IgG (antibody)
0.053 | 0.054 | 0.056 | normal human IgG (antibody)
0.485 and 0.574 | 0.334 and 0.383 | 0.427 and 0.506 | ALB6 (anti-CD9, Beckman coulter) (antibody)

From US20110195027A1
